Consider 3 molecules from paper PMC10928986, “ARTC1-mediated VAPB ADP-ribosylation regulates calcium homeostasis” (Journal of Molecular Cell Biology, 2023).

As usually defined, the Km is the substrate concentration at which the rate is half of its maximum.

Series [1] concerns the target T1, hARTC1 in the presence of hARTC3 (hARTC1–hARTC3 heterodimer) (Homo sapiens, UniProt P52961).
T1 construct: gene ART1; GST-hARTC1 (N23-C295) with His-hARTC3 (N27-C362), both from E. coli; heterodimer by size exclusion; with Ecto-ADP-ribosyltransferase 3
T1 sequence (P52961 23-295): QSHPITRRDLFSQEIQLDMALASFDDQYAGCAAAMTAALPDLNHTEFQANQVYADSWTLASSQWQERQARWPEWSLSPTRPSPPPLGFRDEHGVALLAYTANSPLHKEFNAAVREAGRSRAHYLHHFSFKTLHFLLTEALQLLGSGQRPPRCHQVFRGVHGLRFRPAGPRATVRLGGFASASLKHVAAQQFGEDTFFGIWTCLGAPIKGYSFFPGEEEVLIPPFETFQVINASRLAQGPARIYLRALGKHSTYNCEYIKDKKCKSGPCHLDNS
T1 sequence (Q13508 27-362 partner): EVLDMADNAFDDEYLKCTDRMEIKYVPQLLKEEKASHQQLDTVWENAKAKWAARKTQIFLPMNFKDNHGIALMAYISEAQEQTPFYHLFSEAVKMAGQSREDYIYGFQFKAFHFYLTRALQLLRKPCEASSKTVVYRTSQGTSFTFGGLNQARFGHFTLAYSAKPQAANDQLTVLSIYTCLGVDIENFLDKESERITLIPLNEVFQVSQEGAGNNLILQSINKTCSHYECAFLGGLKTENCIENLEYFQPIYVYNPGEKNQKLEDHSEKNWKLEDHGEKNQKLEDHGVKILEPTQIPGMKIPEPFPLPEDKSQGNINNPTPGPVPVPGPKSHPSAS
Description: etheno-NAD+ fluorescence kinetics. The class given is biochemical. The note with it: 20 mM Tris-HCl pH 8.0, 37°C; hARTC1 with hARTC3 added.

Substrate in series [2]: NC(=O)c1ccc[n+]([C@@H]2O[C@H](COP(=O)(O)OP(=O)(O)OC[C@H]3O[C@@H](n4cnc5c4ncn4ccnc54)[C@H](O)[C@@H]3O)[C@@H](O)[C@H]2O)c1
Description: etheno-NAD+ NAD+ hydrolase fluorescence assay, Lineweaver-Burk. The class given is biochemical, Homo sapiens. The note with it: 20 mM Tris-HCl pH 8.0, 37°C, 60 min, etheno-NAD+ 0-10 μM, enzyme 10 μg/ml.

The target of the next series is T2, His-hARTC3 (N27–C362) (human, UniProt Q13508 27-362).
T2 construct: human ARTC3 residues 27-362, printed as N27–C362 (N and C read as the N- and C-terminal limits), in pET-15b; also called His-ARTC3 (N27–C362); source: E. coli BL21 (Codon Plus), purified (Ni-chelating Sepharose); not shown: His tag, N-terminal, kept
T2 sequence (looked up): T1 sequence (Q13508 27-362 partner)
Description: pull-down; GST-hARTC1 (N23–C295) and His-hARTC3 (N27–C362) purified from E. coli, incubated with Glutathione Sepharose 4B and Ni-chelating Sepharose, 4°C, 2 h; washes in NETN 100; blots with anti-His and anti-GST. The conditions noted are these: both partners purified.

Regarding `NC(=O)c1ccc[n+]([C@@H]2O[C@H](COP(=O)(O)OP(=O)(O)OC[C@H]3O[C@@H](n4cnc5c4ncn4ccnc54)[C@H](O)[C@@H]3O)[C@@H](O)[C@H]2O)c1` [etheno-NAD^+], the “etheno-NAD+ fluorescence kinetics” value in series [1] was “Enzymatic kinetics for etheno-NAD^+ of hARTC1 in the presence (green) or absence (red)”.

B1: hARTC5 (GST-ARTC5 (N23–C291)) (Homo sapiens) (protein)
chain: VPILPLGLAPDTFDDTYVGCAEEMEEKAAPLLKEEMAHHALLRESWEAAQETWEDKRRGLTLPPGFKAQNGIAIMVYTNSSNTLYWELNQAVRTGGGSRELYMRHFPFKALHFYLIRALQLLRGSGGCSRGPGEVVFRGVGSLRFEPKRLGDSVRLGQFASSSLDKAVAHRFGNATLFSLTTCFGAPIQAFSVFPKEREVLIPPHEVFLVTRFSQDGAQSLVTLWSYNQTCSHFNCAYLGGEKRRGCVSAPGALGTGDLHMTKRHLQQP
With B1, the Km in series [2] amounted to 56.78 ± 11.90 µM.

B2: GST-hARTC1 (N23–C295) (domain or fragment, human, UniProt P52961 23-295, looked up)
chain: T1 sequence (P52961 23-295)
notes: human ARTC1 residues 23-295, printed as N23–C295 (N and C read as the N- and C-terminal limits), in pGEX-4T-1; also called GST-ARTC1 (N23–C295); source: E. coli BL21 (Codon Plus), purified (Glutathione Sepharose 4B); not shown: GST, N-terminal, kept
B2: the Km in series [2] is 11.59 ± 1.57 µM. Moreover, the binding result in the series with His-hARTC3 (N27–C362) was “binds”.
